Measurements as given in patent EP4714972A1.
Numbering of substitutions follows the chain as printed.

What was measured:
[1] = biological target: CD38 antigen (human-derived CD38 antigen protein) (human) (UniProt P28907); assay: phage ELISA on coated CD38 antigen; control well (PVA) OD 0.13
[2] = biological target: CD38 antigen (human-derived CD38 antigen protein) (human) (UniProt P28907); assay: phage ELISA on coated CD38 antigen; control well (PVA) OD 0.05
[3] = biological target: CD38 antigen (human-derived CD38 antigen protein) (human) (UniProt P28907); assay: phage ELISA on coated CD38 antigen; control well (PVA) OD 0.18
[4] = biological target: CD38 antigen (human-derived CD38 antigen protein) (human) (UniProt P28907); assay: phage ELISA on coated CD38 antigen; control well (PVA) OD 0.04

B1: B5 alpaca antibody (anti-CD38 single-domain antibody) (VHH)
VHH: QVQLVESGGGLVQPGGSLRLSCTASGFRLDYYAIGWFRQAPGKEREAISCIDITGMHTNYGDSVMGRFTISRDDAKRTVYLQMNSLEAEDTGIYYCAPAQYAACSALGVKVSFTSWGQGTQVTVSP
- OD value of the antigen well (Pro) [1]: 0.89 OD

B2: B3 alpaca antibody (anti-CD38 single-domain antibody) (VHH)
VHH: QVQLVESGGGLVQAGGSLRLACTASGNIFASQVMNWYRQAPGSPRELVATITPGGRTTYADSAKGRFTVATDNAKATAYLQLTSLTPEDTGVYYCHVRLFPATDYWGQGTQVTVSS
- OD value of the antigen well (Pro) [2]: 0.15 OD

B3: B2 alpaca antibody (anti-CD38 single-domain antibody) (VHH)
VHH: QVQLVESGGGLVQPGGSLTLSCRASGFTLDYYAIGWFRQAPGKEREAIACIDITGFHTNYGDSVSGRFTISRDNAGTTVYLQMNSLEAEDTGIYYCAPARYAACSALDVKLSFTSWGQGTQVTVSS
- OD value of the antigen well (Pro) [3]: 1.07 OD

B4: B8 alpaca antibody (anti-CD38 single-domain antibody) (VHH)
VHH: B3 VHH with T19R, R23T, T28R
- OD value of the antigen well (Pro) [4]: 1.77 OD

B5: B1 alpaca antibody (anti-CD38 single-domain antibody) (VHH)
VHH: QVQLVESGGGEVQPGGSLRLSCTASGFRLDYYAIGWFRRAPGKEREGIACIDITGIHTNYGDSVMGRFTISRDDRAVYLQMNNLEAGDTAIYYCAPARFSACSALDVKLSFTSWGQGTQVTVSS
- OD value of the antigen well (Pro) [3]: 0.65 OD
